The values below come from PMC1885967, “The Dynamics of Signal Triggering in a gp130-Receptor Complex” (Structure(London, England:1993), 2007).

The chains are these.
B1: Extracellular region of murine gp130 (residues 1-617) (receptor, UniProt Q00560 23-617, looked up)
chain: QLLEPCGYIYPEFPVVQRGSNFTAICVLKEACLQHYYVNASYIVWKTNHAAVPREQVTVINRTTSSVTFTDVVLPSVQLTCNILSFGQIEQNVYGVTMLSGFPPDKPTNLTCIVNEGKNMLCQWDPGRETYLETNYTLKSEWATEKFPDCQSKHGTSCMVSYMPTYYVNIEVWVEAENALGKVSSESINFDPVDKVKPTPPYNLSVTNSEELSSILKLSWVSSGLGGLLDLKSDIQYRTKDASTWIQVPLEDTMSPRTSFTVQDLKPFTEYVFRIRSIKDSGKGYWSDWSEEASGTTYEDRPSRPPSFWYKTNPSHGQEYRSVRLIWKALPLSEANGKILDYEVILTQSKSVSQTYTVTGTELTVNLTNDRYVASLAARNKVGKSAAAVLTIPSPHVTAAYSVVNLKAFPKDNLLWVEWTPPPKPVSKYILEWCVLSENAPCVEDWQQEDATVNRTHLRGRLLESKCYQITVTPVFATGPGGSESLKAYLKQAAPARGPTVRTKKVGKNEAVLAWDQIPVDDQNGFIRNYSISYRTSVGKEMVVHVDSSHTEYTLSSLSSDTLYMVRMAAYTDEGGKDGPEFTFTTPKFAQGEIE
notes: signal peptide in the construct; gp130, murine, extracellular region (domains D1-D6), residues 1-617, expressed as a secreted soluble protein; Two copies stand in the hexameric IL-11H complex; also called soluble gp130; source: human epithelial kidney 293T cells, transiently transfected, secreted; purified from the media (protein A Sepharose, on-column cleavage with rhinovirus 3C protease); not …

Holding throughout (assay): cryo-EM structure; three affinity-purified subunits mixed with IL-11 in molar excess, complex purified by gel filtration (Superdex 200); 5 mM HEPES pH 7.5, 100 mM NaCl, 1 mM DTT, 0.25% β-octylglucopyranoside; 1 mg/ml, vitrified; single-particle reconstruction with C2 symmetry at 30 Å, homology model (IL-6 hexamer plus FNIII repeats) fitted
For orientation: SEC sorts molecules by how far they enter the pores of the column.

Data set [1] concerns the molecule itself.
Data set [2] deals with T1, Extracellular region of murine IL-11 receptor (residues 1-361) (murine, UniProt Q64385 24-361).
T1 construct: signal peptide in the construct; IL-11 receptor, murine, extracellular region, residues 1-361, expressed as a secreted soluble protein; Two copies stand in the hexameric IL-11H complex; also called soluble IL-11R; source: Drosophila S2 cells, stably transfected, secreted; purified from the media (protein A Sepharose, on-column cleavage with rhinovirus 3C protease); not shown: Fc, C-terminal, …
T1 sequence (looked up): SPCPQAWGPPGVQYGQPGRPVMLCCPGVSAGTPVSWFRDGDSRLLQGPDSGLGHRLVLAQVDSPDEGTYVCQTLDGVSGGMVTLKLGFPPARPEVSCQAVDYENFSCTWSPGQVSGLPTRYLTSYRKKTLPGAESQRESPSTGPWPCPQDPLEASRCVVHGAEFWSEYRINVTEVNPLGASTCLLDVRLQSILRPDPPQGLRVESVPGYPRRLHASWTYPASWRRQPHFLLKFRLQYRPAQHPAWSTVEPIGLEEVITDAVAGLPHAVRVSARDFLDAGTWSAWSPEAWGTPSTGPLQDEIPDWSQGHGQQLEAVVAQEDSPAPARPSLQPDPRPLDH
Conditions: both partners purified.

Data set [3] concerns the target B1. Conditions: both partners purified.

As to B1, the binding result in data set [1] is given as “binds”.

B2: Murine Interleukin 11 (residues 22-199) (ligand, UniProt P47873 22-199, looked up)
chain: PGPPAGSPRVSSDPRADLDSAVLLTRSLLADTRQLAAQMRDKFPADGDHSLDSLPTLAMSAGTLGSLQLPGVLTRLRVDLMSYLRHVQWLRRAGGPSLKTLEPELGALQARLERLLRRLQLLMSRLALPQAAPDQPVIPLGPPASAWGSIRAAHAILGGLHLTLDWAVRGLLLLKTRL
notes: Interleukin 11, murine, residues 22-199, subcloned into pET15b; Two copies stand in the hexameric IL-11H complex; also called IL-11
Regarding B2, the binding result in data set [2] and in data set [3] was “binds” in each case.
